{
  "source": "IntAct's records for PubMed 25910212",
  "parents": {"B1": {"name": "60 kDa heat shock protein, mitochondrial (Homo sapiens), P10809 (parent)", "chain": "MLRLPTVFRQMRPVSRVLAPHLTRAYAKDVKFGADARALMLQGVDLLADAVAVTMGPKGRTVIIEQSWGSPKVTKDGVTVAKSIDLKDKYKNIGAKLVQDVANNTNEEAGDGTTTATVLARSIAKEGFEKISKGANPVEIRRGVMLAVDAVIAELKKQSKPVTTPEEIAQVATISANGDKEIGNIISDAMKKVGRKGVITVKDGKTLNDELEIIEGMKFDRGYISPYFINTSKGQKCEFQDAYVLLSEKKISSIQSIVPALEIANAHRKPLVIIAEDVDGEALSTLVLNRLKVGLQVVAVKAPGFGDNRKNQLKDMAIATGGAVFGEEGLTLNLEDVQPHDLGKVGEVIVTKDDAMLLKGKGDKAQIEKRIQEIIEQLDVTTSEYEKEKLNERLAKLSDGVAVLKVGGTSDVEVNEKKDRVTDALNATRAAVEEGIVLGGGCALLRCIPALDSLTPANEDQKIGIEIIKRTLKIPAMTIAKNAGVEGSLIVEKIMQSSSEVGYDAMAGDFVNMVEKGIIDPTKVVRTALLDAAGVASLLTTAEVVVTEIPKEEKDPGMGAMGGMGGGMGGGMF"}, "B2": {"name": "Multifunctional procollagen lysine hydroxylase and glycosyltransferase LH3 (Homo sapiens), O60568 (parent)", "chain": "MTSSGPGPRFLLLLPLLLPPAASASDRPRGRDPVNPEKLLVITVATAETEGYLRFLRSAEFFNYTVRTLGLGEEWRGGDVARTVGGGQKVRWLKKEMEKYADREDMIIMFVDSYDVILAGSPTELLKKFVQSGSRLLFSAESFCWPEWGLAEQYPEVGTGKRFLNSGGFIGFATTIHQIVRQWKYKDDDDDQLFYTRLYLDPGLREKLSLNLDHKSRIFQNLNGALDEVVLKFDRNRVRIRNVAYDTLPIVVHGNGPTKLQLNYLGNYVPNGWTPEGGCGFCNQDRRTLPGGQPPPRVFLAVFVEQPTPFLPRFLQRLLLLDYPPDRVTLFLHNNEVFHEPHIADSWPQLQDHFSAVKLVGPEEALSPGEARDMAMDLCRQDPECEFYFSLDADAVLTNLQTLRILIEENRKVIAPMLSRHGKLWSNFWGALSPDEYYARSEDYVELVQRKRVGVWNVPYISQAYVIRGDTLRMELPQRDVFSGSDTDPDMAFCKSFRDKGIFLHLSNQHEFGRLLATSRYDTEHLHPDLWQIFDNPVDWKEQYIHENYSRALEGEGIVEQPCPDVYWFPLLSEQMCDELVAEMEHYGQWSGGRHEDSRLAGGYENVPTVDIHMKQVGYEDQWLQLLRTYVGPMTESLFPGYHTKARAVMNFVVRYRPDEQPSLRPHHDSSTFTLNVALNHKGLDYEGGGCRFLRYDCVISSPRKGWALLHPGRLTHYHEGLPTTWGTRYIMVSFVDP", "partner": "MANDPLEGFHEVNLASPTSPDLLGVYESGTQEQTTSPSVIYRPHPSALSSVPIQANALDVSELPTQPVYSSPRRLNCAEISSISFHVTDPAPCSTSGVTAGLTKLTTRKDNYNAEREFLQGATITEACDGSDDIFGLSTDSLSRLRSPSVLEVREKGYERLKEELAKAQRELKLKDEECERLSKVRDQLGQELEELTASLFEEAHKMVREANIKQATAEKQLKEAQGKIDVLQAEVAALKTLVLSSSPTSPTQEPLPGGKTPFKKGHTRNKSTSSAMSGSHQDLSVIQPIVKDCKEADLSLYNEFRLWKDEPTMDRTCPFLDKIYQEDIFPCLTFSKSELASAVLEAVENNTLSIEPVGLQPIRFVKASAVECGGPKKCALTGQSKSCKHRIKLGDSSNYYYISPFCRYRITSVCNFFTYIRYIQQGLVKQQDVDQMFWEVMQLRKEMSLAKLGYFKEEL"}, "B3": {"name": "Fructose-bisphosphate aldolase A (Homo sapiens), P04075-2 (parent)", "chain": "MARRKPEGSSFNMTHLSMAMAFSFPPVASGQLHPQLGNTQHQTELGKELATTSTMPYQYPALTPEQKKELSDIAHRIVAPGKGILAADESTGSIAKRLQSIGTENTEENRRFYRQLLLTADDRVNPCIGGVILFHETLYQKADDGRPFPQVIKSKGGVVGIKVDKGVVPLAGTNGETTTQGLDGLSERCAQYKKDGADFAKWRCVLKIGEHTPSALAIMENANVLARYASICQQNGIVPIVEPEILPDGDHDLKRCQYVTEKVLAAVYKALSDHHIYLEGTLLKPNMVTPGHACTQKFSHEEIAMATVTALRRTVPPAVTGITFLSGGQSEEEASINLNAINKCPLLKPWALTFSYGRALQASALKAWGGKKENLKAAQEEYVKRALANSLACQGKYTPSGQAGAAASESLFVSNHAY", "partner": "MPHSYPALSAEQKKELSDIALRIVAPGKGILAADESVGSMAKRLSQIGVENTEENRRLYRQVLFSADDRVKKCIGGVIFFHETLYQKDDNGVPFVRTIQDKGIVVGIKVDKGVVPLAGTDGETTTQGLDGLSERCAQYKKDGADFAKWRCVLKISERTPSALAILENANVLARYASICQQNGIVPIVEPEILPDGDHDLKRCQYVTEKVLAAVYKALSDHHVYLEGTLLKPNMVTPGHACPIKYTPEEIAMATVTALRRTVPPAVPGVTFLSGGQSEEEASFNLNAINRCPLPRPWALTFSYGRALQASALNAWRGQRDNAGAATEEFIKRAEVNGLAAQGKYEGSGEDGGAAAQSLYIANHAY"}, "B4": {"name": "Phakinin (Homo sapiens), Q13515 (parent)", "chain": "MSERRVVVDLPTSASSSMPLQRRRASFRGPRSSSSLESPPASRTNAMSGLVRAPGVYVGTAPSGCIGGLGARVTRRALGISSVFLQGLRSSGLATVPAPGLERDHGAVEDLGGCLVEYMAKVHALEQVSQELETQLRMHLESKATRSGNWGALRASWASSCQQVGEAVLENARLMLQTETIQAGADDFKERYENEQPFRKAAEEEINSLYKVIDEANLTKMDLESQIESLKEELGSLSRNYEEDVKLLHKQLAGCELEQMDAPIGTGLDDILETIRIQWERDVEKNRVEAGALLQAKQQAEVAHMSQTQEEKLAAALRVELHNTSCQVQSLQAETESLRALKRGLENTLHDAKHWHDMELQNLGAVVGRLEAELREIRAEAEQQQQERAHLLARKCQLQKDVASYHALLDREESG"}, "B5": {"name": "Cyclin-dependent kinase 4 inhibitor C (Homo sapiens), P42773 (parent)", "chain": "MAEPWGNELASAAARGDLEQLTSLLQNNVNVNAQNGFGRTALQVMKLGNPEIARRLLLRGANPDLKDRTGFAVIHDAARAGFLDTLQTLLEFQADVNIEDNEGNLPLHLAAKEGHLRVVEFLVKHTASNVGHRNHKGDTACDLARLYGRNEVVSLMQANGAGGATNLQ", "partner": "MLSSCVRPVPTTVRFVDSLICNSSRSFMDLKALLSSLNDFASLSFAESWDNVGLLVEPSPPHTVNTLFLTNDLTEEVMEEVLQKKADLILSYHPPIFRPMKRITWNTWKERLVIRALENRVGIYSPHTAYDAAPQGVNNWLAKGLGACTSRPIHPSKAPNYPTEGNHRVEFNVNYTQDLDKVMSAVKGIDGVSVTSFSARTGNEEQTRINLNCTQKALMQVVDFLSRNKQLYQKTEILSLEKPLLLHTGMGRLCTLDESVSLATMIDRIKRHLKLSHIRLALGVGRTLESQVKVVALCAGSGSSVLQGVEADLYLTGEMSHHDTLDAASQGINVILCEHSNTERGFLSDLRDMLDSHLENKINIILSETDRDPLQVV"}, "B6": {"name": "Inactive peptidyl-prolyl cis-trans isomerase FKBP6 (Homo sapiens), O75344 (parent)", "chain": "MGGSALNQGVLEGDDAPGQSLYERLSQRMLDISGDRGVLKDVIREGAGDLVAPDASVLVKYSGYLEHMDRPFDSNYFRKTPRLMKLGEDITLWGMELGLLSMRRGELARFLFKPNYAYGTLGCPPLIPPNTTVLFEIELLDFLDCAESDKFCALSAEQQDQFPLQKVLKVAATEREFGNYLFRQNRFYDAKVRYKRALLLLRRRSAPPEEQHLVEAAKLPVLLNLSFTYLKLDRPTIALCYGEQALIIDQKNAKALFRCGQACLLLTEYQKARDFLVRAQKEQPFNHDINNELKKLASCYRDYVDKEKEMWHRMFAPCGDGSTAGES"}, "B7": {"name": "Hepatocyte nuclear factor 4-alpha (Homo sapiens), P41235-3 (parent)", "chain": "MRLSKTLVDMDMADYSAALDPAYTTLEFENVQVLTMGNDTSPSEGTNLNAPNSLGVSALCAICGDRATGKHYGASSCDGCKGFFRRSVRKNHMYSCRFSRQCVVDKDKRNQCRYCRLKKCFRAGMKKEAVQNERDRISTRRSSYEDSSLPSINALLQAEVLSRQITSPVSGINGDIRAKKIASIADVCESMKEQLLVLVEWAKYIPAFCELPLDDQVALLRAHAGEHLLLGATKRSMVFKDVLLLGNDYIVPRHCPELAEMSRVSIRILDELVLPFQELQIDDNEYAYLKAIIFFDPDAKGLSDPGKIKRLRSQVQVSLEDYINDRQYDSRGRFGELLLLLPTLQSITWQMIEQIQFIKLFGMAKIDNLLQEMLLGGPCQAQEGRGWSGDSPGDRPHTVSSPLSSLASPLCRFGQVA"}, "B8": {"name": "Fibulin-5 (Homo sapiens), Q9UBX5 (parent)", "chain": "MPGIKRILTVTILALCLPSPGNAQAQCTNGFDLDRQSGQCLDIDECRTIPEACRGDMMCVNQNGGYLCIPRTNPVYRGPYSNPYSTPYSGPYPAAAPPLSAPNYPTISRPLICRFGYQMDESNQCVDVDECATDSHQCNPTQICINTEGGYTCSCTDGYWLLEGQCLDIDECRYGYCQQLCANVPGSYSCTCNPGFTLNEDGRSCQDVNECATENPCVQTCVNTYGSFICRCDPGYELEEDGVHCSDMDECSFSEFLCQHECVNQPGTYFCSCPPGYILLDDNRSCQDINECEHRNHTCNLQQTCYNLQGGFKCIDPIRCEEPYLRISDNRCMCPAENPGCRDQPFTILYRDMDVVSGRSVPADIFQMQATTRYPGAYYIFQIKSGNEGREFYMRQTGPISATLVMTRPIKGPREIQLDLEMITVNTVINFRGSSVIRLRIYVSQYPF"}},
  "data": [
    {"variants_of": "B1", "conditions": "with lzts2_human LZTS2, Q9BRK4", "values": [
      {"variant": "V98I", "effect of a mutation on the interaction": "with no effect"},
      {"variant": "D29G", "effect of a mutation on the interaction": "disrupting interaction strength"}
    ]},
    {"variants_of": "B2", "conditions": "with RAB3IP", "values": [
      {"variant": "N223S", "effect of a mutation on the interaction": "with no effect"}
    ]},
    {"variants_of": "B3", "conditions": "with aldoc_human ALDOC", "values": [
      {"variant": "D183G", "effect of a mutation on the interaction": "with no effect"},
      {"variant": "E261K", "effect of a mutation on the interaction": "disrupting interaction strength"},
      {"variant": "C393Y", "effect of a mutation on the interaction": "with no effect"}
    ]},
    {"variants_of": "B4", "conditions": "with atf4_human ATF4, P18848", "values": [
      {"variant": "R339H", "effect of a mutation on the interaction": "with no effect"},
      {"variant": "A407D", "effect of a mutation on the interaction": "with no effect"}
    ]},
    {"variants_of": "B4", "conditions": "with syce1_human SYCE1, Q8N0S2", "values": [
      {"variant": "R339H", "effect of a mutation on the interaction": "with no effect"},
      {"variant": "A407D", "effect of a mutation on the interaction": "with no effect"}
    ]},
    {"variants_of": "B5", "conditions": "with nif3l_human NIF3L1, Q9GZT8", "values": [
      {"variant": "V31L", "effect of a mutation on the interaction": "disrupting interaction strength"}
    ]},
    {"variants_of": "B6", "conditions": "with lzts2_human LZTS2, Q9BRK4", "values": [
      {"variant": "F72L", "effect of a mutation on the interaction": "disrupting interaction strength"},
      {"variant": "R202H", "effect of a mutation on the interaction": "with no effect"}
    ]},
    {"variants_of": "B6", "conditions": "with meox2_human MEOX2, P50222", "values": [
      {"variant": "F72L", "effect of a mutation on the interaction": "disrupting interaction strength"},
      {"variant": "R202H", "effect of a mutation on the interaction": "with no effect"}
    ]},
    {"variants_of": "B7", "conditions": "with plpp2_human PLPP2, O43688", "values": [
      {"variant": "C102W", "effect of a mutation on the interaction": "disrupting interaction strength"}
    ]},
    {"variants_of": "B7", "conditions": "with if1ay_human EIF1AY", "values": [
      {"variant": "C102W", "effect of a mutation on the interaction": "disrupting interaction strength"}
    ]},
    {"variants_of": "B7", "conditions": "with dmd_human DMD", "values": [
      {"variant": "C102W", "effect of a mutation on the interaction": "disrupting interaction strength"}
    ]},
    {"variants_of": "B8", "conditions": "with otx1_human OTX1, P32242", "values": [
      {"variant": "V60L", "effect of a mutation on the interaction": "disrupting interaction strength"}
    ]},
    {"variants_of": "B8", "conditions": "with meox2_human MEOX2, P50222", "values": [
      {"variant": "V60L", "effect of a mutation on the interaction": "disrupting interaction strength"}
    ]}
  ]
}
